# Laboratory results as given in patent US11045456.
# Tests used:
# [1] = target: p65 phosphorylation-deficient mutant S276A (UniProt Q04206)
# [2] = target: nuclear factor-κB (NF-κB) p65 subunit, human, wild type (UniProt Q04206)
# [3] = target: p65 mutant S536A (UniProt Q04206)
# Chain of p65 mutant S536A (Q04206 whole entry S536A): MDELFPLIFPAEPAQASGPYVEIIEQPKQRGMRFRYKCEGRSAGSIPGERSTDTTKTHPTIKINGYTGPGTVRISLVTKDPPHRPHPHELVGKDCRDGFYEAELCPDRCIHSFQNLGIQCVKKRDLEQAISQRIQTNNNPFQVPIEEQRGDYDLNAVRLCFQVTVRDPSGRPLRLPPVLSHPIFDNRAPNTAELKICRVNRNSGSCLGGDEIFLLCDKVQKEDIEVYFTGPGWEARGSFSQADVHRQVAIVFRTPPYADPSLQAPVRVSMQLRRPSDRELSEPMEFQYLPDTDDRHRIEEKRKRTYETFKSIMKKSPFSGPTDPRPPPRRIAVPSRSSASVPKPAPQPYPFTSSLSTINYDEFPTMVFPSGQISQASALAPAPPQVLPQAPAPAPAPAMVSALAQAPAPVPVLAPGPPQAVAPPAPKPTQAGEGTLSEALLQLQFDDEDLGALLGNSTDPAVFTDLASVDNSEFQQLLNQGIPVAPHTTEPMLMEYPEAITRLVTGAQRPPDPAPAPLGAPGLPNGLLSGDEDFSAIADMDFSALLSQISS
# Chain of p65 phosphorylation-deficient mutant S276A (Q04206 whole entry S276A): as the sequence (Q04206 whole entry S536A) above, with S276A, A536S counted along it
# Chain of nuclear factor-κB (NF-κB) p65 subunit, human, wild type (Q04206 whole entry): as the sequence (Q04206 whole entry S536A) above, with A536S counted along it
substance,measurement,setting,value
"PKA-Cβ1, human",NF-κB promoter activity,[1],which was abrogated by co-expressing the S276A mutant of p65
same,NF-κB promoter activity,[2],Co-transfection with PKA-Cβ1 significantly enhanced the p65-induced NF-κB promoter activity
same,phosphorylation of p65 (Phos-tag PAGE),[2],"the overexpression of PKA-Cβ1, the major subtype of Cβ in BEAS-2B cells, induced the phosphorylation of p65, which was inhibited by H89"
"protein kinase A catalytic subunit β (PKA-Cβ), human",intensity ratio of PKA-Cβ-induced phosphorylation (Phos-tag PAGE),[3],The intensity ratio of PKA-Cβ-induced phosphorylation was decreased in S276A- and S536A-transfected cells compared to the wild-type p65-transfected cells
same,intensity ratio of PKA-Cβ-induced phosphorylation (Phos-tag PAGE),[1],The intensity ratio of PKA-Cβ-induced phosphorylation was decreased in S276A- and S536A-transfected cells compared to the wild-type p65-transfected cells
